What was measured:
[1] = molecular target: T1, p97/valosin-containing protein (human, UniProt P55072 2-806); assay: co-immunoprecipitation from bronchial brushings of ΔF508 CF subjects (IP gp78, immunoblot VCP)
T1 construct: Endogenous protein detected by immunoblot in immunoprecipitates; also called VCP; VCP/p97
Protocol: (§1) Cells were lysed directly on plates using M-PER (Pierce Biotech. Inc., Rockford, Ill.) protein lysis buffer containing protease inhibitor cocktail (Roche) after three washes with ice cold PBS. CF bronchial brushings were transferred to lysis buffer. For immunoprecipitation, 500 μg/ml (cell culture)/50 μg/ml (bronchial brushings) total protein extracts were incubated with 50 μl of protein A/G agarose beads (Santa Cruz Biotechnology Inc., Santa Cruz, Calif.) for 3 hours at 4° C. After preclearing, 5 μg of respective primary antibody or pre-immune sera (negative control) was added to each tube. After 1 hour, protein A/G agarose beads (50 μL) were added to each tube and tubes were incubated overnight at 4° C. Beads were washed once with lysis buffer (20 mM Tris-HC1 [pH 7.6], 150 mM NaCl, 0.5% Triton X-100 and 10 μM phenylmethylsulfonyl fluoride [PMSF]) followed with two washes with phosphate buffer saline (PBS). The beads were suspended in Laemmli's sample buffer (30 μL) containing β-mercaptoethanol, vortexed for 1 minute, resolved by 4-10% SDS-PAGE and transferred to a 0.4-μm pore size nitrocellulose membrane.

Hsc70 = Hsc70 (human, UniProt P11142 2-646); assay: co-immunoprecipitation from bronchial brushings of ΔF508 CF subjects (IP gp78, immunoblot Hsc70)
Sequence of Hsc70 (P11142 2-646 limits assumed): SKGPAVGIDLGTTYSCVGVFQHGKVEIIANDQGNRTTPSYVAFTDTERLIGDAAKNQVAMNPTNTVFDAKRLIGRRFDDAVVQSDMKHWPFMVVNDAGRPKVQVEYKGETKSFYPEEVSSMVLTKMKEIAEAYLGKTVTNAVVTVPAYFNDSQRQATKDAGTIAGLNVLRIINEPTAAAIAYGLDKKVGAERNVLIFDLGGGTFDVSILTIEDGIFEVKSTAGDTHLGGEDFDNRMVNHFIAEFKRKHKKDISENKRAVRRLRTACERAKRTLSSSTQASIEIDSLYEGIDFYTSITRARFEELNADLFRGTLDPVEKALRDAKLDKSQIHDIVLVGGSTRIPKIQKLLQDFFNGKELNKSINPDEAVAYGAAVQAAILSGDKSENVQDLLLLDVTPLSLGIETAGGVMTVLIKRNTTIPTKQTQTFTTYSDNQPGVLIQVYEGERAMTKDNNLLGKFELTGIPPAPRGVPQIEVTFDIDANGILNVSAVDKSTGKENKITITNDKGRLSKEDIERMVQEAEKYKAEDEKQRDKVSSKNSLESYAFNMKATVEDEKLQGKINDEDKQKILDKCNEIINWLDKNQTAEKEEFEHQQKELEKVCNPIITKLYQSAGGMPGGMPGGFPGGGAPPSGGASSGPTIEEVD
Protocol: as §1

T1 sequence (P55072 2-806 limits assumed): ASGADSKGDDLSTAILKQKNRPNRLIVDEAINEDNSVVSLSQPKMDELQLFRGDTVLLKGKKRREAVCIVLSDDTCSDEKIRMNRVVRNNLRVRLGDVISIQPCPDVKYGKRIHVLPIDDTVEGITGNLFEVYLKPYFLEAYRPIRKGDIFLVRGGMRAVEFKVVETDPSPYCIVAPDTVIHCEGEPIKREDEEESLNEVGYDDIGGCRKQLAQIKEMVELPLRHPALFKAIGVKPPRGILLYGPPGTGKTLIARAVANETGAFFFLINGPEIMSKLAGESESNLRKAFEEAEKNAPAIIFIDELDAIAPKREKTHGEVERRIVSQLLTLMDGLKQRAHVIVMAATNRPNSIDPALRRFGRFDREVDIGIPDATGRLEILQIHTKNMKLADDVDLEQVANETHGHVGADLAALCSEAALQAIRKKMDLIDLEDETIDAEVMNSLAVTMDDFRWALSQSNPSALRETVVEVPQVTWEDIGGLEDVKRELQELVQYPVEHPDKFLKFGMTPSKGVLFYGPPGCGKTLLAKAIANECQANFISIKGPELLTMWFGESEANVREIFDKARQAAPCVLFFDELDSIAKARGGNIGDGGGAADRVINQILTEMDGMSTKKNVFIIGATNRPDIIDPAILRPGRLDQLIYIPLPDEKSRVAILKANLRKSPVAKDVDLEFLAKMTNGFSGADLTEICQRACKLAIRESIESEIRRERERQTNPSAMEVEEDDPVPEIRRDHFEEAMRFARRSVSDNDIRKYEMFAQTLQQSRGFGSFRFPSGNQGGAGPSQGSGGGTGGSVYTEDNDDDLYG

binding result [1]: no binding
binding result (Hsc70): no binding
B1: gp78 (enzyme, human, UniProt Q9UKV5 1-643, looked up)
chain: MPLLFLERFPWPSLRTYTGLSGLALLGTIISAYRALSQPEAGPGEPDQLTASLQPEPPAPARPSAGGPRARDVAQYLLSDSLFVWVLVNTACCVLMLVAKLIQCIVFGPLRVSERQHLKDKFWNFIFYKFIFIFGVLNVQTVEEVVMWCLWFAGLVFLHLMVQLCKDRFEYLSFSPTTPMSSHGRVLSLLVAMLLSCCGLAAVCSITGYTHGMHTLAFMAAESLLVTVRTAHVILRYVIHLWDLNHEGTWEGKGTYVYYTDFVMELTLLSLDLMHHIHMLLFGNIWLSMASLVIFMQLRYLFHEVQRRIRRHKNYLRVVGNMEARFAVATPEELAVNNDDCAICWDSMQAARKLPCGHLFHNSCLRSWLEQDTSCPTCRMSLNIADNNRVREEHQGENLDENLVPVAAAEGRPRLNQHNHFFHFDGSRIASWLPSFSVEVMHTTNILGITQASNSQLNAMAHQIQEMFPQVPYHLVLQDLQLTRSVEITTDNILEGRIQVPFPTQRSDSIRPALNSPVERPSSDQEEGETSAQTERVPLDLSPRLEETLDFGEVEVEPSEVEDFEARGSRFSKSADERQRMLVQRKDELLQQARKRFLNKSSEDDAASESFLPSEGASSDPVTLRRRMLAAAAERRLQKQQTS
notes: also called AMFR; AMFR/gp78
